Laboratory results: paper PMC5134833, “The amyloid-beta forming tripeptide cleavage mechanism of γ-secretase” (eLife, 2016)

Target: T1, γ-secretase (Homo sapiens, UniProt P49768)
T1 construct: made in house; host or cells: suspension HEK cells (Freestyle 293), transiently transfected
Assay: In vitro γ-secretase assay (purified γ-secretase in proteoliposomes cleaving recombinant C100-FLAG substrate)
Type: biochemical
Conditions: C100-FLAG 500 nM, Figure 1B, 1F
Method: Purified γ-secretase was incorporated into vesicles by first dissolving total brain lipid extract (1.25 mM final) in 50 mM HEPES pH 7.0, 150 mM NaCl, 0.25% CHAPSO. γ-Secretase (5–30 nM final concentration) was then added to the solution and detergent removed by mixing SM-2 biobeads (62 mg/mL) (Bio-Rad) with the lipid/detergent/enzyme solution for two hrs at 4°C. Biobeads were removed from the newly formed proteoliposomes and reactions were initiated with the addition of purified recombinant substrate C100-FLAG substrate. Reactions were quenched with SDS loading dye for western blot or centrifuged for ELISA or mass spectrometry on Aβ or AICD fragments, respectively.
For inhibition studies, tripeptide fragments or inhibitors were dissolved in DMSO prior to being diluted into the reaction buffer. The concentration of C100-FLAG used in all in vitro assays was 500 nM unless otherwise stated.
Tripeptide IC50 inhibition was fit to: vi/vo=1/(1+[I]/IC50)
Tripeptide inhibition was globally fit to the following noncompetitive equation: v= Vmax[S]/[S](1+[I]/Kii)+Km(1+[I]/Ki)
Inhibitor cross-competition was globally fit to: 1/vij=1/v0(1+[I]/Ki+[J]/Kj+[I][J]/αKiKj)

| Substance | inhibition of γ-secretase activity (relative potency in words) |
| --- | --- |
| FAF: synthetic tripeptide of the predicted optimal binding sequence for the large-small-large S1'-S2'-S3' pockets | more potent inhibitor of γ-secretase activity than any of the naturally occurring APP-derived tripeptides |
| AFA: synthetic tripeptide predicted to clash with the S' pocket binding site | very weak inhibitor |
